Target: Wnt3a
Experiment: cell-based or functional assay

decrease in Wnt3a acylation (metabolic labeling with az-15 and 35S-Met/Cys, click chemistry with ALK-Rho on immunoprecipitated Wnt3a): 31%
Substance: Human Tiki2 (from UniProt A6NFA1 20-486) (enzyme)
